In test [1] the target is T1, human integrin αvβ3 (human, UniProt P06756 31-992; P05106 27-718, limits assumed). In words: human FP direct binding; n=2.
Test [2] deals with T1, human integrin αvβ3. In words: human FP direct binding; column 'Mean', n=2.
In test [3] the target is T1, human integrin αvβ3. The test can be described thus: human FP direct binding; column 'Mean', n=9.

Broadly, the Kd is the concentration at which binding is half-saturated. Read a low Kd as higher affinity.

Numbered stars: 1 amine (or outer) side, 2 acyl side, 3 side chain; on linkers, the order of the positions; unused ones are H or OH. Bridge positions count the residues as written; N and C are the ends. Square brackets hold non-standard residues; d marks the D form. Ends that are not written are not given here. TBMB = c1c(C[*:1])cc(C[*:3])cc1C[*:2]; Fl = fluorescein; Sar = CNCC(=O)O

T1 sequence (P06756 31-992 limits assumed, chain 1 of 2): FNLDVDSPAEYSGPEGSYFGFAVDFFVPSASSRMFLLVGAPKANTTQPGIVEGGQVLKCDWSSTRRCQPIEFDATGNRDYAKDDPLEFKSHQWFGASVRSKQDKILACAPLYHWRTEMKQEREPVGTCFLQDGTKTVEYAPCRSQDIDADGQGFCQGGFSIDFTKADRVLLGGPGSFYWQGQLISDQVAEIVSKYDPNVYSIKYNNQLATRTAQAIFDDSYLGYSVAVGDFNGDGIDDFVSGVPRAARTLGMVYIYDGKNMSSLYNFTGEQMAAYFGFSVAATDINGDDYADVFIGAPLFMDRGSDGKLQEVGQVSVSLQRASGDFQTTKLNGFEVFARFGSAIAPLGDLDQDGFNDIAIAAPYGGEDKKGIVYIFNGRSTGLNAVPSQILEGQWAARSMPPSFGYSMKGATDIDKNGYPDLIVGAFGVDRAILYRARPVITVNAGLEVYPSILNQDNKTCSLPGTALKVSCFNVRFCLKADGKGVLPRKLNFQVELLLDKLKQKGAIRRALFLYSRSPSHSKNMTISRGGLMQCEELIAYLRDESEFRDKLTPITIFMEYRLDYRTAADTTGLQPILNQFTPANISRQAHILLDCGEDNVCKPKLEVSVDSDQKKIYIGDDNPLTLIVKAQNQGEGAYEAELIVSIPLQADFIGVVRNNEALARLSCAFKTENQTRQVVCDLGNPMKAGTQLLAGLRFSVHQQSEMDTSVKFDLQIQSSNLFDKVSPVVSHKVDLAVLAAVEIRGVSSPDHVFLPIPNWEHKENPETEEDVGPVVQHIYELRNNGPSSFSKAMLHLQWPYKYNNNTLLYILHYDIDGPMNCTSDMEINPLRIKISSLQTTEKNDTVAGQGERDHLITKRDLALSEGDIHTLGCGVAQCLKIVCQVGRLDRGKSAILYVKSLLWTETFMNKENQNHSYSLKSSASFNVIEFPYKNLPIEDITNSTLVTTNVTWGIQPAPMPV
T1 sequence (P05106 27-718 limits assumed, chain 2 of 2): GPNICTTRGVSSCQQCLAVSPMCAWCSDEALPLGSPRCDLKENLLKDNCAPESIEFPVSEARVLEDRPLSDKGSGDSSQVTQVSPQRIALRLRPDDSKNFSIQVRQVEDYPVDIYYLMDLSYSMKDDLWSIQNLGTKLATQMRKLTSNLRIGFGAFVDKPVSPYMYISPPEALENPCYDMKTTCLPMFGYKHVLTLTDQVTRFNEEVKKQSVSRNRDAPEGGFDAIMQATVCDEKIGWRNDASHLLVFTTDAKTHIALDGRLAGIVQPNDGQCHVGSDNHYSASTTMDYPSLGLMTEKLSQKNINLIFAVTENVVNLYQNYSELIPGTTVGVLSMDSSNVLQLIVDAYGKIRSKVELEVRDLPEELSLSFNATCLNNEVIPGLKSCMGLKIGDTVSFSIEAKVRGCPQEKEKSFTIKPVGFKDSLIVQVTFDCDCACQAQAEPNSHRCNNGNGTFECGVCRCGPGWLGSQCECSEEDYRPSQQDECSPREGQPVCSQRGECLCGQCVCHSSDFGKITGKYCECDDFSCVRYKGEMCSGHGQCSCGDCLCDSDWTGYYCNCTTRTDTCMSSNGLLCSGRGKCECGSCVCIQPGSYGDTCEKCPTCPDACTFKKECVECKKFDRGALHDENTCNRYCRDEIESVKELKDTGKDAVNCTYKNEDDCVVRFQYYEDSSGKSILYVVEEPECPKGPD

B1: BCY2573 (peptide)
peptide: Fl-G[Sar][Sar][Sar][Sar][Sar]ACLDHMECRGDMDC
modifications: linker 8-14-20 via TBMB
notes: Fluorescent bicyclic peptide
B1: the Kd in the test with human integrin αvβ3 [1] and with human integrin αvβ3 [2] was 1 nM each time.

B2: BCY2572 (peptide)
peptide: ACLDHMECRGDMDCAXXXXXXK
modifications: Sar6 (six sarcosines); fluorescein (Fl) on the C-terminal K; Ci, Cii and Ciii bound to the TBMB scaffold
notes: Fluorescent bicyclic peptide
In the test with human integrin αvβ3 [3], B2 returned a Kd of 9 nM.

B3: BCY2577 (peptide)
peptide: Ac-CILRPNCDLDGRCA[Sar][Sar][Sar][Sar][Sar][Sar]K
modifications: linker 1-7-13 via TBMB; not fully specified (residue 21); also: Fl on the C-terminal K
notes: Fluorescent bicyclic peptide
As to B3, the Kd with human integrin αvβ3 [1] and in the test with human integrin αvβ3 [2] was 2 nM each time.

For the origin of these results see US20220119488A1, “BICYCLIC PEPTIDE LIGANDS SPECIFIC FOR INTEGRIN ALPHA-V-BETA-3” (priority 2019, published 2022).
